Source: US20230296621A1 (CHAN ZUCKERBERG BIOHUB, published 2023)

B1: C105 IgG (antibody, V domains shown)
VH: QVQLVESGGGLIQPGGSLRLSCAASGFTVSSNYMSWVRQAPGKGLEWVSVIYSGGSTYYADSVKGRFTISRDNSKNTLYLQMNSLRAEDTAVYYCARGEGWELPYDYWGQGTLVTVSS
VL: QSALTQPPSASGSPGQSVTISCTGTSSDVGGYKYVSWYQQHPGKAPKLMIYEVSKRPSGVPDRFSGSKSGNTASLTVSGLQAEDEADYYCSSYEGSNNFVVFGGGTKLTVLG
B2: C004 IgG (antibody, V domains shown)
VH: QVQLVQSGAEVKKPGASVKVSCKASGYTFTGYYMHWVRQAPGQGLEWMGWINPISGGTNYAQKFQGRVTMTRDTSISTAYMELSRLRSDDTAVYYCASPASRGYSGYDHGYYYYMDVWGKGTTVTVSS
VL: AIRMTQSPSSLSASVGDRVTITCQASQDISNYLNWYQQKPGKAPKLLIYDASNLETGVPSRFSGSGSGTDFTFTISSLQPEDIATYYCQQYDNLPITFGQGTRLEIKR
notes: also called recombinant anti-S-RBD antibody C004

Target: SARS-CoV-2 Spike receptor binding domain (SpikeRBD, aa 328-533) (SARS-CoV-2, UniProt P0DTC2 328-533)
Experiment: BLI on immobilised biotinylated Spike-RBD

Binder | binding result
B1 | binds
B2 | binds
